Source: paper PMC7730623

Tests used:
[1] = target: human ameloblastin full-length isoform I (AMBN ISO I) (human) (UniProt Q9NP70); assay: AUC; sedimentation velocity, 23 uM protein, 20 °C, 10 mM Tris-HCl pH 7.4, 100 mM NaCl, with 10 mM CaCl2; c(s) with bimodal f/f0; average size of heterogeneous oligomers
[2] = target: human ameloblastin full-length isoform I (AMBN ISO I) (human) (UniProt Q9NP70); assay: AUC; sedimentation velocity, 23 uM protein, 20 °C, 10 mM Tris-HCl pH 7.4, 100 mM NaCl, no Ca2+; c(s) with bimodal f/f0; average size of heterogeneous oligomers
[3] = target: human ameloblastin full-length isoform II (AMBN ISO II) (human) (UniProt Q9NP70); assay: AUC; sedimentation velocity, 23 uM protein, 20 °C, 10 mM Tris-HCl pH 7.4, 100 mM NaCl, with 10 mM CaCl2; c(s) with bimodal f/f0; average size of heterogeneous oligomers
[4] = target: human ameloblastin full-length isoform II (AMBN ISO II) (human) (UniProt Q9NP70); assay: AUC; sedimentation velocity, 23 uM protein, 20 °C, 10 mM Tris-HCl pH 7.4, 100 mM NaCl, no Ca2+; c(s) with bimodal f/f0; average size of heterogeneous oligomers

Substance	stoichiometry N [1] [monomers]	stoichiometry N [2] [monomers]	stoichiometry N [3] [monomers]	stoichiometry N [4] [monomers]
human ameloblastin full-length isoform I (AMBN ISO I) (from UniProt Q9NP70-1 27-447) (natural protein)	33	28	–	–
human ameloblastin full-length isoform II (AMBN ISO II) (from UniProt Q9NP70-2 27-432) (natural protein)	–	–	20	19
